Reference: publication PMC6780499, “Characterization, Recombinant Production and Structure-Function Analysis of NvCI, A Picomolar Metallocarboxypeptidase Inhibitor from the Marine Snail Nerita versicolor” (Marine Drugs, 2019)
No end group written: not given here.

T1: hTAFI (Homo sapiens, UniProt Q96IY4)
T1 sequence (Q96IY4 115-423): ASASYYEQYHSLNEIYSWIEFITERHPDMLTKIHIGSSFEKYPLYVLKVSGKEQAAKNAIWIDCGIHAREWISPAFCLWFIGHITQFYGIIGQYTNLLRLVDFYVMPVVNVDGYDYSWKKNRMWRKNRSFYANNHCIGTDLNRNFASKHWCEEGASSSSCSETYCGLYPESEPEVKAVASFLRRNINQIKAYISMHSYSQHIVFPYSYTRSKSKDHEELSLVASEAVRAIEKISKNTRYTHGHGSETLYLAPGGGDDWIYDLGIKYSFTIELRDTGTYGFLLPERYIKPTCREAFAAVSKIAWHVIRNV

T2: pCPB (Sus scrofa (Pig), UniProt P09955)
T2 chain: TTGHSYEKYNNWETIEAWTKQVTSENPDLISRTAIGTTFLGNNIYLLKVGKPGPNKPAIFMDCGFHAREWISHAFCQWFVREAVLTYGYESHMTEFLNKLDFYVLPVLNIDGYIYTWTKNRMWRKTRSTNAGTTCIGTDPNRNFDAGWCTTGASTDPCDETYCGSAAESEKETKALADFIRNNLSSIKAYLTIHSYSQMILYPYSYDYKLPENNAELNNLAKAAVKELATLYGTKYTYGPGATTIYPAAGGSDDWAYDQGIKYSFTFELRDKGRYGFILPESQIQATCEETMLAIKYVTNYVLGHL

T3: hCPA4 (Homo sapiens (Human), UniProt Q9UI42)
T3 chain: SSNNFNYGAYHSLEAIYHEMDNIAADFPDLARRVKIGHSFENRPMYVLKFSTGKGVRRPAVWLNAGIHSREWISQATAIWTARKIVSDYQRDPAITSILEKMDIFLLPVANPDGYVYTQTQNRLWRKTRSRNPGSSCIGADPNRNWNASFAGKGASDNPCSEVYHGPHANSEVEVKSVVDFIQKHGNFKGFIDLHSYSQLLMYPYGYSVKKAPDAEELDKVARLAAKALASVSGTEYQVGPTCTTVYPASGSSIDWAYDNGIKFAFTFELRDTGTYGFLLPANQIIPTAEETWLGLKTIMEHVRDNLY

T4: hCPA1 (Homo sapiens (Human), UniProt P15085)
T4 chain: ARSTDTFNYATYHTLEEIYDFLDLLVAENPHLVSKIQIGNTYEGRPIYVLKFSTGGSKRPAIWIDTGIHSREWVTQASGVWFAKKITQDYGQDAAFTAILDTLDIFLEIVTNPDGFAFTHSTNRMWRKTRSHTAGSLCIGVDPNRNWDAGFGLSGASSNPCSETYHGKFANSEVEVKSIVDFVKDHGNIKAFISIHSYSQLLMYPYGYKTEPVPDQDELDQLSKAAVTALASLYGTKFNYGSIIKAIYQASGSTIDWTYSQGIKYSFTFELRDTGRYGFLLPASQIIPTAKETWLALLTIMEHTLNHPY


How the values were obtained:
CPA1 forms = experiment: Apparent binding kinetics, effect of preincubation time; format: biochemical; details: preincubation over different periods of time, titration and equilibrium conditions
Procedure: (§1) The Ki values of natural and recombinant NvCI against bCPA1, hCPA1, hCPA2, rat CPA3, hCPA4, hCPB1, bTAFI, hTAFI, hCPD and hCPZ were determined by measuring the enzymatic residual activity (Vi/V0 = a) at different inhibitor concentrations and using a fixed enzyme and substrate concentrations as described above, where vi and v0 are the fraction of enzymatic activity in the presence and absence of inhibitor, respectively, in terms of initial velocities. […] Working temperature was 37 °C. The best estimates of Ki values were obtained by fitting the experimental data to the equation for tight-binding inhibitors by non-linear regression using the GraphPad Prisma 5 software (GraphPad Software, Inc., San Diego, CA, USA) at p < 0.05. The real Ki values against each of these A/B-type MCPs were calculated according to the equation described by Morrison and Copeland [19, 20].

different MCPs = experiment: as above; format: biochemical; details: preincubation over different periods of time, titration and equilibrium conditions
Procedure: as §1

HepG2 cells = experiment: Cytotoxicity, XTT assay; format: cell-based, human; details: 72 h incubation, 2 to 250 µg/ml, three independent experiments
Procedure: Cytotoxicity effect of NvCI was tested in a cell culture system using the human hepatocyte cell line HepG2 (American Type Culture Collection (ATCC)). The cells were grown in Dulbecco’s modified Eagle’s medium (DMEM) medium supplemented with 10% (v/v) heat inactivated fetal bovine serum, 2 mM glutamine (Life Technologies Inc.), in a highly humidified atmosphere of 90% air with 10% CO2 at 37 °C. Growth inhibitory effect was measured by the microculture tetrazolium [2,3-bis-(2-methoxy-4-nitro-5-sulfophenyl)-2H-tetrazolium-5-carboxanilide, XTT] assay. Following the addition of different inhibitor concentrations to quadruplicate wells, plates were incubated at 37 °C for 72 h. Aliquots of 20 µl of XTT solution were then added to each well. After 3 h, the color formed was quantitated by a spectrophotometric plate reader (PerkinElmer Victor3 V) at a wavelength of 490 nm. Cell viability was expressed as a percentage of the control level.
Cell viability of HepG2 cells after 72 h incubation with NvCI at various concentrations (2 to 250 µg/ml). Untreated cells were used as controls. Data represent the mean and standard error of the mean (SEM) of three independent experiments.

hTAFI = target: T1, hTAFI; experiment: Ki determination, tight-binding inhibition of metallocarboxypeptidase; format: biochemical; details: tight-binding equation fit; substrate AAFA 0.1mM; enzyme-inhibitor mixture not preincubated; 37 °C; means (n = 3) ± SD
Procedure: Inhibitory activities against CPA- and CPB-type forms (bovine and human variants of CPA1, CPA2, CPA4, CPB1, and TAFI) were assayed for all extracts, subject to the experimental conditions that enzyme (E), substrate (S) and inhibitor (I) concentrations as well as the [I]/[E] ratio and preincubation time followed the requirements for tight-binding inhibitor assays. Similar approaches were followed to measure the activities of proteases of different catalytic types, like pepsin, papain, trypsin and subtilisin [45, 46, 47, 48]. All assays were performed in triplicate at 25 °C in a multiplexed manner. For 96-well assays an iEMS spectrophotometer reader/dispenser FM (Labsystems, Finland) was used with a final reaction volume of 250 μL. […] The reactions were followed at 5 s intervals for 5 min and recorded as initial velocities. […]
The Ki values of natural and recombinant NvCI against bCPA1, hCPA1, hCPA2, rat CPA3, hCPA4, hCPB1, bTAFI, hTAFI, hCPD and hCPZ were determined by measuring the enzymatic residual activity (Vi/V0 = a) at different inhibitor concentrations and using a fixed enzyme and substrate concentrations as described above, where vi and v0 are the fraction of enzymatic activity in the presence and absence of inhibitor, respectively, in terms of initial velocities. […]

pCPB = target: T2, pCPB; experiment: Ki, residual activity
hCPA4 = target: T3, hCPA4; experiment: Ki, residual activity
hCPA1 = target: T4, hCPA1; experiment: Ki, residual activity

Molecule	binding behaviour (CPA1 forms)	binding behaviour (different MCPs)	cytotoxicity / cell viability (HepG2 cells)	Ki (hTAFI) [nM]	Kd (pCPB) [nM]	Kd (hCPA4) [nM]	Kd (hCPA1) [nM]
NvCI: 53-residue, three-disulphide proteinaceous metallocarboxypeptidase inhibitor from the marine snail Nerita versicolor; major isoform; UniProt P86912 (FHVPDDRPCINPGRCPLVPDATCTFVCKAADNDFGYECQHVWTFEGQRVGCYA; disulfide (positions not given here); also: three disulphides, pairing not given here; UniProt P86912 1-53, looked up)	slow binding behavior	fast binding	None of the NvCI concentrations assayed exhibited substantial cytotoxicity	0.393 ± 0.0219			
NvCI (protein, disulfide (positions not given here); not fully specified (bridges); ends not checked) FHVPDDRPCINPGRCPLVPDATCTFVCKAADNDFGYECQHVWTFEGQRVGCYA					0.335	0.0049	0.0012
